Our source for the interaction score values is PMC10397247.

One test addresses T1, APC7524-AA.
T1 chain: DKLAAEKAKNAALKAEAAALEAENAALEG
Kind of test: two-hybrid library CCmax.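 Note: natural log of median RNA to DNA barcode read ratio; higher means stronger binding.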 As to conditions: mean of both orientations.

Another test deals with T2, APC2543-AA.
T2 chain: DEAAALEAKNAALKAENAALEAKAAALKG
Kind of test: two-hybrid library CCmax.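 Note: natural log of median RNA to DNA barcode read ratio; higher means stronger binding.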 Particulars: mean of both orientations.

Another test addresses T3, APC3323-AA.
T3 chain: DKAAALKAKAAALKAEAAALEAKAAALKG
Kind of test: two-hybrid library CCmax.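 Note: natural log of median RNA to DNA barcode read ratio; higher means stronger binding.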 Particulars: mean of both orientations.

The next test concerns the target T4, APC5009-AA.
T4 chain: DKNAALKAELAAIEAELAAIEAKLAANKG
Kind of test: two-hybrid library CCmax.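 Note: natural log of median RNA to DNA barcode read ratio; higher means stronger binding.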 Particulars: mean of both orientations.

The target of another test is T5, APC9182-AA.
T5 chain: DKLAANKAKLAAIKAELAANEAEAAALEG
Kind of test: two-hybrid library CCmax.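 Note: natural log of median RNA to DNA barcode read ratio; higher means stronger binding.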 As to conditions: mean of both orientations.

Another test addresses T6, APC9291-AA.
T6 chain: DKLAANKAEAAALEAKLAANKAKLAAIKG
Kind of test: two-hybrid library CCmax.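 Note: natural log of median RNA to DNA barcode read ratio; higher means stronger binding.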 As to conditions: mean of both orientations.

A further test addresses T7, APC542-AA.
T7 chain: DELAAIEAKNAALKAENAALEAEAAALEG
Kind of test: two-hybrid library CCmax. As to conditions: mean of both orientations.

For another test, the target named is T8, APC9141-AA.
T8 chain: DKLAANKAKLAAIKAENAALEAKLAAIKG
Kind of test: two-hybrid library CCmax. As to conditions: mean of both orientations.

The target in the next test is T9, APC1916-AA.
T9 chain: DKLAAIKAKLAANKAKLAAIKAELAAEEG
Kind of test: two-hybrid library CCmax.

A further test deals with T10, APC3881-AA.
T10 chain: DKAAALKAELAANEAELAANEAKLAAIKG
Kind of test: two-hybrid library CCmax. Particulars: mean of both orientations.

The next test concerns the target T11, APC2375-AA.
T11 chain: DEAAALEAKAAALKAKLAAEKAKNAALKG
Kind of test: two-hybrid library CCmax. Particulars: mean of both orientations.

Another test deals with T12, APC6088-AA.
T12 chain: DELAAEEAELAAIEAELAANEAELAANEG
Kind of test: two-hybrid library CCmax. As to conditions: mean of both orientations.

For a further test, the target named is T13, APC8516-AA.
T13 chain: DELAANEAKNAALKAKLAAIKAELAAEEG
Kind of test: two-hybrid library CCmax. As to conditions: mean of both orientations.

Another test addresses T14, APC9806-AA.
T14 chain: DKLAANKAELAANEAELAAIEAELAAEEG
Kind of test: two-hybrid library CCmax. Particulars: mean of both orientations.

In the next test the target is T15, APC2811-AA.
T15 chain: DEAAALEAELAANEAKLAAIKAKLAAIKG
Kind of test: two-hybrid library CCmax. As to conditions: mean of both orientations.

The target of a further test is T16, APC5531-AA.
T16 chain: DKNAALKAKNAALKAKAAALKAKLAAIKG
Kind of test: two-hybrid library CCmax. Particulars: mean of both orientations.

The next test has as its target T17, APC2556-AA.
T17 chain: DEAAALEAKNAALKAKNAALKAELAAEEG
Kind of test: two-hybrid library CCmax. Particulars: mean of both orientations.

The target of a further test is T18, APC4336-AA.
T18 chain: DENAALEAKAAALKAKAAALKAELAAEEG
Kind of test: two-hybrid library CCmax. Particulars: mean of both orientations.

The next test addresses T19, APC3354-AA.
T19 chain: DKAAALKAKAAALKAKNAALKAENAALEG
Kind of test: two-hybrid library CCmax. Particulars: mean of both orientations.

In another test the target is T20, APC1987-AA.
T20 chain: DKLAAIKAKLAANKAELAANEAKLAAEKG
Kind of test: two-hybrid library CCmax. Particulars: mean of both orientations.

In a further test the target is T21, APC3265-AA.
T21 chain: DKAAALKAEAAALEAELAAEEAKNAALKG
Kind of test: two-hybrid library CCmax. As to conditions: mean of both orientations.

The next test concerns the target T22, APC2981-AA.
T22 chain: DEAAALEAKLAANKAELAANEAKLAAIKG
Kind of test: two-hybrid library CCmax. Particulars: mean of both orientations.

A further test concerns the target T23, APC4100-AA.
T23 chain: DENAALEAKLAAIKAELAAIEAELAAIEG
Kind of test: two-hybrid library CCmax. As to conditions: mean of both orientations.

A further test deals with T24, APC2474-AA.
T24 chain: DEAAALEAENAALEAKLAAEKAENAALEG
Kind of test: two-hybrid library CCmax. As to conditions: mean of both orientations.

The target in the next test is T25, APC222-AA.
T25 chain: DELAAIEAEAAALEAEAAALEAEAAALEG
Kind of test: two-hybrid library CCmax. Particulars: mean of both orientations.

For a further test, the target named is T26, APC2724-AA.
T26 chain: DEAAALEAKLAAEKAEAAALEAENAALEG
Kind of test: two-hybrid library CCmax. Particulars: mean of both orientations.

A further test deals with T27, APC2257-AA.
T27 chain: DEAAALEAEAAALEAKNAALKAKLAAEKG
Kind of test: two-hybrid library CCmax. As to conditions: mean of both orientations.

In another test the target is T28, APC8401-AA.
T28 chain: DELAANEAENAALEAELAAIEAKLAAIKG
Kind of test: two-hybrid library CCmax. Particulars: mean of both orientations.

A further test deals with T29, 4H908-bN.
T29 chain: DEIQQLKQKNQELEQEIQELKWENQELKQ
Kind of test: two-hybrid library CCNG1.

Another test concerns the target T30, 4H953-bA.
T30 chain: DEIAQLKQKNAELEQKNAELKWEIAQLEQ
Kind of test: two-hybrid library CCNG1.

A further test concerns the target T31, 4H780-bA.
T31 chain: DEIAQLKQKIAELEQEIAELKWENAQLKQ
Kind of test: two-hybrid library CCNG1.

The target in the next test is T32, 4H968-bA.
T32 chain: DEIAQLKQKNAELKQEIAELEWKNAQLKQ
Kind of test: two-hybrid library CCNG1.

A further test addresses T33, P11mS.
T33 chain: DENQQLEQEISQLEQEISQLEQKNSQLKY
Kind of test: two-hybrid library CCNG1.

The next test has as its target T34, 4H883-bA.
T34 chain: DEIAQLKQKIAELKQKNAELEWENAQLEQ
Kind of test: two-hybrid library CCNG1.

The target of the next test is T35, 4H855-bA.
T35 chain: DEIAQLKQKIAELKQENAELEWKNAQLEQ
Kind of test: two-hybrid library CCNG1.

The target of a further test is T36, 4H797-bA.
T36 chain: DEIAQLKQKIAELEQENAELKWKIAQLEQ
Kind of test: two-hybrid library CCNG1.

The target of a further test is T37, 4H754-bA.
T37 chain: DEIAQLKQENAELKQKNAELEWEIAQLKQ
Kind of test: two-hybrid library CCNG1.

In a further test the target is T38, 4H967-bA.
T38 chain: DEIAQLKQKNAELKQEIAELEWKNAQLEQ
Kind of test: two-hybrid library CCNG1.

Another test has as its target T39, 4H918-bA.
T39 chain: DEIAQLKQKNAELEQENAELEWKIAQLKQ
Kind of test: two-hybrid library CCNG1.

Another test deals with T40, 4H908-bA.
T40 chain: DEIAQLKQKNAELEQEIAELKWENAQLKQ
Kind of test: two-hybrid library CCNG1.

B1: APC1916-AA (peptide)
chain: DKLAAIKAKLAANKAKLAAIKAELAAEEG
With B1, the interaction score in the test with APC7524-AA was -1.57; with APC2543-AA, -1.62; in the test with APC3323-AA it was -1.94; in the test with APC5009-AA, -0.00974; with APC9182-AA it was -1.82; in the test with APC9291-AA, -2.08. The interaction score with APC542-AA is -1.62; in the test with APC9141-AA, -1.7; with APC1916-AA, -1.89; with APC3881-AA, -1.78; with APC2375-AA it was -1.88; with APC6088-AA, -1.82. The interaction score with APC8516-AA is -1.83; in the test with APC9806-AA it was -2.04; in the test with APC2811-AA, -2.01; with APC5531-AA, -1.75; with APC2556-AA, -1.71; with APC4336-AA it was -1.64. Besides, the interaction score with APC3354-AA was -1.8; in the test with APC1987-AA it was -2.06; with APC3265-AA, -1.75; with APC2981-AA, -1.78; with APC4100-AA, 0.352; in the test with APC2474-AA, -1.31. The interaction score with APC222-AA is -1.45; with APC2724-AA it was -1.83; in the test with APC2257-AA it was -1.73; in the test with APC8401-AA it was -0.817.

B2: 4H754-bA (peptide)
chain: DEIAQLKQENAELKQKNAELEWEIAQLKQ
For the molecule B2, the interaction score is -0.94 with 4H908-bN; 0.496 with 4H953-bA; -1.48 with 4H780-bA; -0.368 with 4H968-bA; -1.53 in the test with P11mS; -0.374 in the test with 4H883-bA. Also, the interaction score in the test with 4H855-bA is -0.914; in the test with 4H797-bA, -0.233; with 4H754-bA it was 1.57; with 4H967-bA, -0.575; in the test with 4H918-bA, -0.579; with 4H908-bA it was -0.879.
